In the nanobody polyreactivity screen of Harvey et al. (2022):

Assay: yeast display, Sf9 membrane polyspecificity reagent, FACS + sequencing; frameworks hold sequencing errors
How it was run: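 After 36–48 hours of galactose induction, yeast (Saccharomyces cerevisiae BJ5465) displaying a synthetic nanobody library were stained at 4 °C for 1 hour with 10% biotinylated, detergent-solubilized Sf9 membrane reagent. Streptavidin microbeads enriched the stained cells before FACS sorting into low and high (top ~1%) gates on anti-HA and streptavidin fluorescence. Each clone's polyreactivity label reflects its gate of origin.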

| Sequence | polyreactivity (PSR sort gate) |
| --- | --- |
| QVQLVESGGGLVQAGASLRLSCAASGSIFVRNAMGWYRQAPGKERELVAAISKRGTSTYFADSVKGRFTISRDNAKNTVYLQMNSLKPEDTAVYYCNAVLSNSRSYLIRLDYWGQGTQVTVSS | high polyreactivity |
| QVQLVESGGGLVQAGASLRLSCAASGSISKSYAMGWYRQAPGKERELVAAMSWRGGSTYADSVKGRFTISRDNAKNTVYLLMNCLKPEDSAVYYCAATNYGTFWGGQSERYDYWGQGTQVTVSS | low polyreactivity |
| QVQLVESGGGLVQAGASLRLSCAASGSTFDYYAMGWSRQAPGKELELVDAISRGGSTNYADSVKGRFTISRDNAKNSVYLQMNILKPEDTAVYYCAAAPTYRWHDGYWGQGTQVTVSS | low polyreactivity |
| QVQLVESGGGLVQAGASLRLSCAPSASIFSYNAMGWYSQAPGKERELVAAIDWSGGSTYYADSVKGRFTISRDNAKNTVYLQMNSLKPEDTEVYYCNAVGVFYYSYHYHQSDYWGQGTQVTVSS | low polyreactivity |
| QVQLVESGGGLVQAGASLRLSCAPSGSTFYPNSMAWYRQSPGKERHLVDAITSGGSTYYADSVKGRFTISRDNSKNTVYLQMNSLKPEDTAVYYCAAQRRYHQDTTIAPGNYYYWGQGTQVTVSS | low polyreactivity |
| QVQLVESGGGLVQAGASLRLSCASSGSISKSYAMGWYRQAPGKERELVAAISWRGGSTYADSVKGRFTISRDNAKNTVYLQMNSLKPVDTAVYYCAATNYGTFWVGQSERYDYWGQGTEVTVSS | low polyreactivity |
| QVQLVESGGGLVQAGASLRLSCPPSGFIFSLYAMGWYSQAPGKERELVADISWGDGTTYYADSVKGRFTISRDNAKNTVYLQMNSLKPEDTAVYYCAADSVSNWYWFNYWGQGTQVTVSS | high polyreactivity |
| QVQLVESGGGLVQAGCNLRISCAASGSTFTLYAMGWYRQAPGKERELVAGITYSGGSTFYADSVKGRFTISRDNAKNTVYLQMKSVKPEDTAVYFCGDVYVPYYWLGRSRGLYYWGQGTQVTVSS | high polyreactivity |
| QVQLVESGGGLVQAGCRLRLSCAASGITFYSYAMGWYRQAPGKERELVAAITLTGGTTYYADSVKGRFTISRDNAKNTVYLQMNSLKPEDTAVSYCAAQYWWWSRFEYDSWGQGTQVTVSS | low polyreactivity |
| QVQLVESGGGLVQAGCSLLLSCAASGRLFSLNAMGWYRQAPGKERELVAAITRSAASTHYADSEKGRFTISRDNAKNTVYLQMNSLKPEDTAVYYCAARFWYDYRHYDYWGQGTEVTVSS | low polyreactivity |
| QVQLVESGGGLVQAGCSLRISCAASGRTFSVYTMGWYRQAPGKERELVAAIRGRGGSTYYADSVKGRFTISRDNAKIPVYLQMNSLKPEDTAVYYCAARASIFGATFDYWGQGTQVTVSS | high polyreactivity |
| QVQLVESGGGLVQAGCSLRISCAASGSTFYPYAMGWYRQAPGKERELVAAISSGGSTYYADSVKGRFTISRDNAKNTVYLQMNSVKPEDTAVYYCAADFYYAYYWGQGTQVTVSS | low polyreactivity |
| QVQLVESGGGLVQAGCSLRLICAASGFTFGRNAMGWYRQAPGKEREFVADISGSVGSTYYADSVKGRFTISRDNAKNTVYLQMNSLKPEDTAVYYCAADTLYTRWEFDYWGQGTLVTVSS | high polyreactivity |
| QVQLVESGGGLVQAGCSLRLICAASGIIFVGYAMGWYRQAPGKDRELVAGINSGGSTNYADSVKGRFTISRDNAKNTVYLQMNSLKPEDTAVYYCAAYPYYYYGYDYWGQGTQVTVSS | low polyreactivity |
| QVQLVESGGGLVQAGCSLRLSCAASGFIFGRYTMGWYRQAPGKERELVAAISGSDVSTYYADSVKGRFTISRDNAKNTVYLQMNSLKPEDTAVYYCNAGPWWYLHEYDYWGQGTQVTVSS | low polyreactivity |
| QVQLVESGGGLVQAGCSLRLSCAASGFIFVRNAMGWYRQAPGKERELVAAISSSGGSTNYADSVKGRFTISRDNAKNTVYLQMNSLKPEDTAVYYCNAQRYYDYWGQGTQVTVSS | high polyreactivity |
| QVQLVESGGGLVQAGCSLRLSCAASGFTFDDYAMGWYRQAPGKERELVAAISWSGGSTYYADSVKGRFTISRDNAKNTVYLQMNSLKPEDTAVYYCAALRTGAQYSTMDYWGQGTQVTVSS | low polyreactivity |
| QVQLVESGGGLVQAGCSLRLSCAASGFTFTTYAMGWYRQSPGKERELVAAISRSTGSTYYADSVKGRFTISRDNAKNTVYLKMNSMKPEDTAVYYCNTVFPNGYLSKYYYWGQGTKVTVSS | high polyreactivity |
| QVQLVESGGGLVQAGCSLRLSCAASGITFVGYAMGWYRQAPGKERELVAAISSSGGSTYYADSVKGRFTISRDNAKNTVYLQMNSLKPEDTAVYYCAKRRWWQKSLYDYWGQGTQVTVSS | high polyreactivity |
| QVQLVESGGGLVQAGCSLRLSCAASGLIFAVYTMGWYRQAPGKERELVAAITRRSTRTYYADSVKGRFTNSRDNAKNTVYLQMNSLKPEDTAVYYCAADRGSSGAAFEYWGQGTQVTVSS | low polyreactivity |
| QVQLVESGGGLVQAGCSLRLSCAASGLIFSKNVMGWYRQAPGKERELVAAISQRGGSTYYADSVKGRFTISRDNAKNTVYLQMNSLKPEDTAVYYCAADNSVSHEDYWGQGTQVTVSS | high polyreactivity |
| QVQLVESGGGLVQAGCSLRLSCAASGLTLRHYAMGWYRQSPGKERELVAAISWNTGSTYYADSVKGRFTISRDNAKNTVYLQMNSLKPEDTAVYYCAAVPRAYYQGLYYWGQCTQVTVSS | high polyreactivity |

| Sequence | polyreactivity (PSR sort gate) |
| --- | --- |
| QVQLVESGGGLVQAGCSLRLSCAASGNTFGYYAMGWYRQAPGKERELVAAITSSGGRTYYADSVKGRFTISRDNAKNTVYLQMNSLKPEDTAVYYCAAGRVGARYPTYRFYYWGQGTLVTVSS | high polyreactivity |
| QVQLVESGGGLVQAGCSLRLSCAASGRIFNWYGMGWYRQAPGKERELVAGITYSASRTYYADSVKGRFTISRDNAKNTVYLQMNSLKPEDTAVYYCAAGRYHRDDGYDYWGQGTQVTVSS | low polyreactivity |
| QVQLVESGGGLVQAGCSLRLSCAASGRIFRRYAMGWYRQAPGKERELVAAITSGGGSTYYADSVKGRFTISRDNAKNTVYLQMNSLKPEDTAVYYCNKSSWEFVKGKYGYWGQGTQVTVSS | low polyreactivity |
| QVQLVESGGGLVQAGCSLRLSCAASGRIFWDNAMGWYRQAPGKERELVAAIDYRGGNTNYADSVKGRFTISRDNAKNTVYLQMNSLKPEDTAVYYCNAEWAVRYPGYDYWGQGTQVTVSS | low polyreactivity |
| QVQLVESGGGLVQAGCSLRLSCAASGRTFARYAMGWSRQAPGKVRELVAGISRSGDSTHYADSVKGRFTISRDNAKNTVYLQMNSRKPEDTSVYYCHKETPTIGARKYEYWGQGTQVTVSS | low polyreactivity |
| QVQLVESGGGLVQAGCSLRLSCAASGRTFDDYAMGWYRQAPGKERELVAAISSRCGSTYYADSVKGRFTISRDNAKNSVYLQMNSLKPEDTAVYYCNTLQSSHGSSQYDSWGQGTQVTVSS | low polyreactivity |
| QVQLVESGGGLVQAGCSLRLSCAASGRTFRYYAMGWYRQAPGKERELVAAISWRGGSTYYADSVKGRFTISRDNAKNTVYLQMNSLKPEDTAVYYCAAGILFGHYDYWGQGTQVTVSS | high polyreactivity |
| QVQLVESGGGLVQAGCSLRLSCAASGRTFSKYTMGWYRQAPGKERELVAAISGSGGSTYYADSVKGRFTISRDNAKNTVYLQMNSLKPEDTAVYYCAAEDEYNWYDDYFYTFDYWGQGTQVTVSS | low polyreactivity |
| QVQLVESGGGLVQAGCSLRLSCAASGSIFDDYAMGWNRQAPGKERELVAAISSSGTSTYYADSVKGRFTISRDNAKNTVYLQMNSLKPEVTAVYYCAARSAILKSGYLMDYWGQGTHVTVSS | low polyreactivity |
| QVQLVESGGGLVQAGCSLRLSCAASGSIFGYNAMGWYRQAPGKERELVAAITGSGGSTYYADSVKGRFTISRDNAKNTVYLQMNSLKPEDTAVYYCADDLFGGPLGYWDYDYWGQGTQVTVSS | low polyreactivity |
| QVQLVESGGGLVQAGCSLRLSCAASGSIFRYYAMGWYRQAPGKERELVAAITSSGGSTYYADSVKGRFTISRDNSKNTVYLQMNSLKPEDTAVYYCNARHVRYSRRENDYWGQGTQVTVSS | high polyreactivity |
| QVQLVESGGGLVQAGCSLRLSCAASGSTFFFNAMGWYRQAPGKERELVAAITGRCGSTYYADSVKGRFTISRDNAKNTVYLQMNSLIPEDTAVYYCAAEGVPYWSSRFWRYDYWGQGTQVTVSS | low polyreactivity |
| QVQLVESGGGLVQAGCSLRLSCAASGSTFGYYTMGWYRQAPGKERELVAAITRSGGSTYYADSVKGRFTISRDNAKNSVYLQMTSLKPEDTAVYYCAADDYWTTFGYWGLGTQVTVSS | low polyreactivity |
| QVQLVESGGGLVQAGCSLRLSCAASGSTFTTNAMGWYRQAPGKEREFVAAITSSGGSTYYADSVKGRFTISRDNAKNTVYLQMNSLKPEDNAVYYCNADGDPSQKLFGRSYDYWGQGTQVNVSS | low polyreactivity |
| QVQLVESGGGLVQAGCSLRLSCAASGSTFTYYAMGWYRQAPGKERESVAAISSNGGSTSYADSVKGRFTISRDNAKNTVYLQMNSLKPEDTAVYYCAARSKRLAHDYWGQGTQVTVSS | high polyreactivity |
| QVQLVESGGGLVQAGCSLRLSCAASGSTFYRYAMGWYRQAPGKERELVAAITSGTGTYYADSVKGRFTISRDNAKNTVYLQMNSLKPEDTAVYYCNARRYLRGYWGQGTQVTVSS | low polyreactivity |
| QVQLVESGGGLVQAGCSLRLSCAASGSTLSFNAMGWYRQAPGKERELVAGITYSGGSTYYADSVKGRFTISRDNAKNTVYLLMNSLKPEDTAFYYCNKACGVYYGHLDYWGQGTQVTVSS | low polyreactivity |
| QVQLVESGGGLVQAGCSLRLSCAASGYNLFAYAMGWYRQSPGKERELVATINTSGGITYYADSVNGRFTISRDIANNTVYLQMNSLKPEDTAVYYCAAADGGGLVTYYYWGQGTQVTVSS | low polyreactivity |
| QVQLVESGGGLVQAGCSLRLSCAATGSFFGFYSMGWYRQAPGKEMELVASITISGGSTYYADSVKGRFTISRDNAKNNVYLQMNSLKLEDTAVYFCAAETYAYLFHTYDYWGQGTHVTVSS | low polyreactivity |
| QVQLVESGGGLVQAGCSLRLSCASSGRIFYGNAMGWYRQAPGKERELVAAISKSGASTYYADSVKGRFTISRDNAKNTVYLQMNSLKPEDTAVYYCAAETPRRKYNYWGQGSQVTVSS | high polyreactivity |
| QVQLVESGGGLVQAGCSLRLSSAASGFTFGYYGMGWYRQAPGKERELVAAISQSSTDTYYADSVKGRFTISRDNAKNTVYLQMNSLKPEDTPVYYCAAHPTDSEYDDYEYWGQGTQVTVSS | low polyreactivity |
